# According to IntAct's records for PubMed 23104059:
# B1: Vesicle-associated membrane protein 7 (Mus musculus), P70280 (parent)
# chain: MAILFAVVARGTTILAKHAWCGGNFLEVTEQILAKIPSENNKLTYSHGNYLFHYICQDRIVYLCITDDDFERSRAFSFLNEVKKRFQTTYGSRAQTALPYAMNSEFSSVLAAQLKHHSENKSLDKVMETQAQVDELKGIMVRNIDLVAQRGERLELLIDKTENLVDSSVTFKTTSRNLARAMCMKNIKLTIIIIIVSIVFIYIIVSLLCGGFTWPNCVKK
# Variants of: B1
# Conditions: with anr27_human ANKRD27, Q96NW4
# anr27_human ANKRD27, Q96NW4, sequence (Q96NW4 whole entry): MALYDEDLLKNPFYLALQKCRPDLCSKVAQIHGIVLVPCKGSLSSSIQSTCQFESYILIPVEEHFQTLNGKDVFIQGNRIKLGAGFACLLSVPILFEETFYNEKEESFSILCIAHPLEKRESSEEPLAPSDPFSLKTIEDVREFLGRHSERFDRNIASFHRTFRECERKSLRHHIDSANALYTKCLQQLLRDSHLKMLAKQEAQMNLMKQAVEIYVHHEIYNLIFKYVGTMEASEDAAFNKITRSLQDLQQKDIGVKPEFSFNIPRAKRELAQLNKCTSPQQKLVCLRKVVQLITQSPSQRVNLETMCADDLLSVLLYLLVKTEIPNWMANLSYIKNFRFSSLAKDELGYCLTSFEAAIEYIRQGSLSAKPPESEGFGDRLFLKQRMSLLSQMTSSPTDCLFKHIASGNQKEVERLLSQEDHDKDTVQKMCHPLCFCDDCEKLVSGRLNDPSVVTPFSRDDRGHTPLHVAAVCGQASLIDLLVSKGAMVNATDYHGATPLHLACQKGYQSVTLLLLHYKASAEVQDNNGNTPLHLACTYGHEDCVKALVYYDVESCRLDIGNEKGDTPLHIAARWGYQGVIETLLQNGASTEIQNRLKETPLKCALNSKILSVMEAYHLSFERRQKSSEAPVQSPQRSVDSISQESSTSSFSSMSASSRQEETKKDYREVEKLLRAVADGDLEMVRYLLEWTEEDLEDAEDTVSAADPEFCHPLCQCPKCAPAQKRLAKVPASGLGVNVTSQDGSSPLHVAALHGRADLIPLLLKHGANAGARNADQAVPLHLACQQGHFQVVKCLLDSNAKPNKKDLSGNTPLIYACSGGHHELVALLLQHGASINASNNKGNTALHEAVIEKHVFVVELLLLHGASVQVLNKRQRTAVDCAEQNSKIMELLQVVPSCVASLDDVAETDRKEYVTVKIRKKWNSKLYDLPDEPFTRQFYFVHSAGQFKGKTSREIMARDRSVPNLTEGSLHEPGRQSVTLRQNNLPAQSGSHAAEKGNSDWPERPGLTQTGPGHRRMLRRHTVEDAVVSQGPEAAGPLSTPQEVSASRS
row,Variant,effect of a mutation on the interaction
1,R72A,disrupting interaction strength
2,D69A;E71F;S73D,disrupting interaction strength
